{"source": "paper PMC2793005", "about": "“Dissecting the Role of Critical Residues and Substrate Preference of a Fatty Acyl-CoA Synthetase (FadD13) of Mycobacterium tuberculosis” (PLoS ONE, 2009)", "proteins": {"B1": {"name": "FadD13 mutant A302G, N-terminal 6x histidine tagged (enzyme)", "chain": "MKNIGWMLRQRATVSPRLQAYVEPSTDVRMTYAQMNALANRCADVLTALGIAKGDRVALLMPNSVEFCCLFYGAAKLGAVAVPINTRLAAPEVSFILSDSGSKVVIYGAPSAPVIDAIRAQADPPGTVTDWIGADSLAERLRSAAADEPAVECGGDDNLFIMYTSGTTGHPKGVVHTHESVHSAASSWASTIDVRYRDRLLLPLPMFHVAALTTVIFSAMRGVTLISMPQFDATKVWSLIVEERVCIGGAVPAILNFMRQVPEFAELDAPDFRYFITGGAPMPEALIKIYAAKNIEVVQGYGLTESCGGGTLLLSEDALRKAGSAGRATMFTDVAVRGDDGVIREHGEGEVVIKSDILLKEYWNRPEATRDAFDNGWFRTGDIGEIDDEGYLYIKDRLKDMIISGGENVYPAEIESVIIGVPGVSEVAVIGLPDEKWGEIAAAIVVADQNEVSEQQIVEYCGTRLARYKLPKKVIFAEAIPRNPTGKILKTVLREQYSATVPK", "notes": "not shown: His6, N-terminal, kept"}, "B2": {"name": "FadD13 mutant D382A, N-terminal 6x histidine tagged (enzyme)", "chain": "B1 chain with G302A, D382A", "notes": "as for B1"}}, "target": "the molecule itself", "assay": "native gel or EMSA", "note": "Changes are numbered by the printed parent chain. In names and notes the source's numbering stands."}
{"protein": "B1", "values": [{"measurement": "stoichiometry N", "value": 2}]}
{"protein": "B2", "values": [{"measurement": "binding result", "value": "binds"}]}
